The results in this text go back to paper PMC7954794 (2021).

B1: S. cerevisiae Abp1 (full length; SH3 domain 535-592 mutated) / Hua2 (parent complex)
chain 1: MALEPIDYTTHSREIDAEYLKIVRGSDPDTTWLIISPNAKKEYEPESTGSSFHDFLQLFDETKVQYGLARVSPPGSDVEKIIIIGWCPDSAPLKTRASFAANFAAVANNLFKGYHVQVTARDEDDLDENELLMKISNAAGARYSIQTSSKQQGKASTPPVKKSFTPSKSPAPVSKKEPVKTPSPAPAAKISSRVNDNNDDDDWNEPELKERDFDQAPLKPNQSSYKPIGKIDLQKVIAEEKAKEDPRLVQKPTAAGSKIDPSSDIANLKNESKLKRDSEFNSFLGTTKPPSMTESSLKNDDDKVIKGFRNEKSPAQLWAERKAKQNSGNAETKAEAPKPEVPEDEPEGEPDVKDLKSKFEGLAASEKEEEEMENKFAPPPKKSEPTIISPKPFSKPQEPVKAEEAEQPKTDYKKIGNPLPGMHIEADNEEEPEENDDDWDDDEDEAAQPPLPSRNVASGAPVQKEEPEQEEIAPSLPSRNSIPAPKQEEAPEQAPEEEIEEEAEEAAPQLPSRSSAAPPPPPRRATPEKKPKENPWATAEYDYDAAEDNELTFVENDKIINIEFVDDDWWLGELEKDGSKGLFPSNYVSLGN
chain 2: MQQTKFGKMYLDHDSVVEYSEDEIVEADRITLGYKKRLSMIENQMRHLLEDFSLDVQQIEPILADLQKYYDAFLQLLQKRNKSLQCKRSTHQPVPSPMNSQTSTNAKVNLSGKLMKFQLNSVQKFDEENILRILQNKIEFEHYFQIDKGKKQKVLLLAVYQCLNGPTRLHKVLNIEGIIHNNSIRTILGKQVSSSKWTVFLYDVKLVLLAHRQDVPNLETSKMIVRYGDLFPCALYFKDHTAY

Variants of B1 are the subject of this assay. Briefly: DHFR protein-fragment complementation in yeast (Abp1-DHFR F[1,2] x partner-DHFR F[3]), deep mutational scanning, second methotrexate selection vs reference; S. cerevisiae, DHFR-PCA selection in liquid with methotrexate at 30 C, two 72 h selections (the score uses the second); reference = the pre-selection culture.
Regarding chain 1 MALEPIDYTTHSREIDAEYLKIVRGSDPDTTWLIISPNAKKEYEPESTGSSFHDFLQLFDETKVQYGLARVSPPGSDVEKIIIIGWCPDSAPLKTRASFAANFAAVANNLFKGYHVQVTARDEDDLDENELLMKISNAAGARYSIQTSSKQQGKASTPPVKKSFTPSKSPAPVSKKEPVKTPSPAPAAKISSRVNDNNDDDDWNEPELKERDFDQAPLKPNQSSYKPIGKIDLQKVIAEEKAKEDPRLVQKPTAAGSKIDPSSDIANLKNESKLKRDSEFNSFLGTTKPPSMTESSLKNDDDKVIKGFRNEKSPAQLWAERKAKQNSGNAETKAEAPKPEVPEDEPEGEPDVKDLKSKFEGLAASEKEEEEMENKFAPPPKKSEPTIISPKPFSKPQEPVKAEEAEQPKTDYKKIGNPLPGMHIEADNEEEPEENDDDWDDDEDEAAQPPLPSRNVASGAPVQKEEPEQEEIAPSLPSRNSIPAPKQEEAPEQAPEEEIEEEAEEAAPQLPSRSSAAPPPPPRRATPEKKPKENPWATAEYDYDAAEDNELTFVENDKIINIEFMDDDWWLGELEKDGSKGLFPSNYVSLGN [chain 1 V565M], the screen value was -1.83 DMS score: mean over two replicates of log2(f_test/f_ref + 0.5)/ln 2, minus the synonymous-codon median (not a log2 ….

Turning to chain 1 MALEPIDYTTHSREIDAEYLKIVRGSDPDTTWLIISPNAKKEYEPESTGSSFHDFLQLFDETKVQYGLARVSPPGSDVEKIIIIGWCPDSAPLKTRASFAANFAAVANNLFKGYHVQVTARDEDDLDENELLMKISNAAGARYSIQTSSKQQGKASTPPVKKSFTPSKSPAPVSKKEPVKTPSPAPAAKISSRVNDNNDDDDWNEPELKERDFDQAPLKPNQSSYKPIGKIDLQKVIAEEKAKEDPRLVQKPTAAGSKIDPSSDIANLKNESKLKRDSEFNSFLGTTKPPSMTESSLKNDDDKVIKGFRNEKSPAQLWAERKAKQNSGNAETKAEAPKPEVPEDEPEGEPDVKDLKSKFEGLAASEKEEEEMENKFAPPPKKSEPTIISPKPFSKPQEPVKAEEAEQPKTDYKKIGNPLPGMHIEADNEEEPEENDDDWDDDEDEAAQPPLPSRNVASGAPVQKEEPEQEEIAPSLPSRNSIPAPKQEEAPEQAPEEEIEEEAEEAAPQLPSRSSAAPPPPPRRATPEKKPKENPWATAEYDYDAAEDNELTFVENDKIINIEFVDDDWWLGELEKDGSKGLFPSNYVSLPN [chain 1 G591P], the screen value was 0.961 DMS score: mean over two replicates of log2(f_test/f_ref + 0.5)/ln 2, minus the synonymous-codon median (not a log2 ….

Consider chain 1 MALEPIDYTTHSREIDAEYLKIVRGSDPDTTWLIISPNAKKEYEPESTGSSFHDFLQLFDETKVQYGLARVSPPGSDVEKIIIIGWCPDSAPLKTRASFAANFAAVANNLFKGYHVQVTARDEDDLDENELLMKISNAAGARYSIQTSSKQQGKASTPPVKKSFTPSKSPAPVSKKEPVKTPSPAPAAKISSRVNDNNDDDDWNEPELKERDFDQAPLKPNQSSYKPIGKIDLQKVIAEEKAKEDPRLVQKPTAAGSKIDPSSDIANLKNESKLKRDSEFNSFLGTTKPPSMTESSLKNDDDKVIKGFRNEKSPAQLWAERKAKQNSGNAETKAEAPKPEVPEDEPEGEPDVKDLKSKFEGLAASEKEEEEMENKFAPPPKKSEPTIISPKPFSKPQEPVKAEEAEQPKTDYKKIGNPLPGMHIEADNEEEPEENDDDWDDDEDEAAQPPLPSRNVASGAPVQKEEPEQEEIAPSLPSRNSIPAPKQEEAPEQAPEEEIEEEAEEAAPQLPSRSSAAPPPPPRRATPEKKPKENPWATAEYDYDSAEDNELTFVENDKIINIEFVDDDWWLGELEKDGSKGLFPSNYVSLGN [chain 1 A545S], for which the screen value is 0.0984 DMS score: mean over two replicates of log2(f_test/f_ref + 0.5)/ln 2, minus the synonymous-codon median (not a log2 ….

For the variant chain 1 MALEPIDYTTHSREIDAEYLKIVRGSDPDTTWLIISPNAKKEYEPESTGSSFHDFLQLFDETKVQYGLARVSPPGSDVEKIIIIGWCPDSAPLKTRASFAANFAAVANNLFKGYHVQVTARDEDDLDENELLMKISNAAGARYSIQTSSKQQGKASTPPVKKSFTPSKSPAPVSKKEPVKTPSPAPAAKISSRVNDNNDDDDWNEPELKERDFDQAPLKPNQSSYKPIGKIDLQKVIAEEKAKEDPRLVQKPTAAGSKIDPSSDIANLKNESKLKRDSEFNSFLGTTKPPSMTESSLKNDDDKVIKGFRNEKSPAQLWAERKAKQNSGNAETKAEAPKPEVPEDEPEGEPDVKDLKSKFEGLAASEKEEEEMENKFAPPPKKSEPTIISPKPFSKPQEPVKAEEAEQPKTDYKKIGNPLPGMHIEADNEEEPEENDDDWDDDEDEAAQPPLPSRNVASGAPVQKEEPEQEEIAPSLPSRNSIPAPKQEEAPEQAPEEEIEEEAEEAAPQLPSRSSAAPPPPPRRATPEKKPKENPWATAEYDYDAANDNELTFVENDKIINIEFVDDDWWLGELEKDGSKGLFPSNYVSLGN [chain 1 E547N], the screen value is -1.94 DMS score: mean over two replicates of log2(f_test/f_ref + 0.5)/ln 2, minus the synonymous-codon median (not a log2 ….

As to chain 1 MALEPIDYTTHSREIDAEYLKIVRGSDPDTTWLIISPNAKKEYEPESTGSSFHDFLQLFDETKVQYGLARVSPPGSDVEKIIIIGWCPDSAPLKTRASFAANFAAVANNLFKGYHVQVTARDEDDLDENELLMKISNAAGARYSIQTSSKQQGKASTPPVKKSFTPSKSPAPVSKKEPVKTPSPAPAAKISSRVNDNNDDDDWNEPELKERDFDQAPLKPNQSSYKPIGKIDLQKVIAEEKAKEDPRLVQKPTAAGSKIDPSSDIANLKNESKLKRDSEFNSFLGTTKPPSMTESSLKNDDDKVIKGFRNEKSPAQLWAERKAKQNSGNAETKAEAPKPEVPEDEPEGEPDVKDLKSKFEGLAASEKEEEEMENKFAPPPKKSEPTIISPKPFSKPQEPVKAEEAEQPKTDYKKIGNPLPGMHIEADNEEEPEENDDDWDDDEDEAAQPPLPSRNVASGAPVQKEEPEQEEIAPSLPSRNSIPAPKQEEAPEQAPEEEIEEEAEEAAPQLPSRSSAAPPPPPRRATPEKKPKENPWATAEYDYDAAEDNELTFVENDKIINIEFVDDDWWLGELEKDGSKGLFPANYVSLGN [chain 1 S585A], the screen value is 1.11 DMS score: mean over two replicates of log2(f_test/f_ref + 0.5)/ln 2, minus the synonymous-codon median (not a log2 ….
